The source of these data is patent US20220153796A1.

This experiment addresses HLA-A*24 (human). Put plainly: UV peptide exchange ELISA.
On to EFTTVLYNF, for which the peptide exchange yield is above 75%. Consider VWSDVTPLNF, for which the peptide exchange yield is above 75%. In turn, DYIGSVEKW showed a peptide exchange yield above 75%. With MYPDLSELLM, the peptide exchange yield is above 75%.

In the case of STIRGELFFF, the peptide exchange yield is 10 to 20%. TYNPDFSSL had a peptide exchange yield of 50 to 75%. Consider KYALLLQDL, for which the peptide exchange yield was above 75%. Turning to VQQWSVAVF, the peptide exchange yield fell in the range of 50 to 75%. SYEVRSTF had a peptide exchange yield of 50 to 75%. With TQPGDWTLF, the peptide exchange yield is above 75%.

The molecule SYNGYVFYL came in with a peptide exchange yield above 75%.

Take KYKDYFPVI: the peptide exchange yield is above 75%. Molecule PFLPPAACFF returned a peptide exchange yield above 75%. Take SYSSCYSF: the peptide exchange yield was 50 to 75%. KFIISDWRF registered a peptide exchange yield above 75%. With NYTLYPITF the figure was above 75%; with KTPTNYYLF, above 75%. The result for VWSNVTPLKF reads above 75%; that for YYSKSVGFMQW, above 75%; that for YYADKKTFIVL, 50 to 75%.

As for SYEKVINYL, the peptide exchange yield is above 75%.

In the case of RYMKKDYLI, the peptide exchange yield is above 75%. For YLEKFYGL, the peptide exchange yield lay in the range of 20 to 50%. Molecule HYTYILEVF displayed a peptide exchange yield above 75%. QYDPTPLTW came in with a peptide exchange yield above 75%.

With ILKEDPFLF, the peptide exchange yield fell in the range of 10 to 20%. For the molecule YYSIISHTL, the peptide exchange yield was above 75%.
